Test results: patent US20190040149A1 (Innovent, published 2019)

Experiments:
[1] = molecular target: T1, human PD-1 on cells (CHO cells; T cells in the mixed lymphocyte reaction) (human, UniProt Q15116 25-288); assay: flow cytometry on CHO cells with human PD-1 (n=1)
T1 construct: also called human PD-1 on CHO cells
Description: (§1) Cells are then washed 3×, and are incubated with a secondary antibody (PE-labelled, at final concentration of 5 μg/ml) in PBS 1% BSA for 30 min on ice (protected from light). Cells are washed 3× and analyzed via flow cytometry. Flow cytometry is performed on an Accuri C6 system (BD Biosciences) and MFIs are calculated on the C6 software. EC50 s are calculated on Graphpad software.

[2] = molecular target: T1, human PD-1 on cells (CHO cells; T cells …); assay: cell-based or functional assay
human PD-1_HIS = molecular target: T2, human PD-1_HIS (human, UniProt Q15116 25-167, limits assumed); assay: bio-layer interferometry (ForteBio), human PD-1_HIS in solution, IgG on sensor tip
T2 construct: not shown: His tag
T2 sequence (Q15116 25-167 limits assumed): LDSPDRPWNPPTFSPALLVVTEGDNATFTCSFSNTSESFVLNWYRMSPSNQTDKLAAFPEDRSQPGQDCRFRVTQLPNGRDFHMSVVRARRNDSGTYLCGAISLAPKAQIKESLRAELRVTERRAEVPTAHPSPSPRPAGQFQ
Description: Briefly, ForteBio affinity measurements were performed by loading IgGs online onto AHQ sensors. Sensors were equilibrated off-line in assay buffer for 30 min and then monitored on-line for 60 seconds for baseline establishment. Sensors with loaded IgGs were exposed to 100 nM antigen for 5 min, afterwards they were transferred to assay buffer for 5 min for off-rate measurement. Kinetics was analyzed using the 1:1 binding model.

[3] = molecular target: T3, human PD-1 (soluble antigen of the MSD assay, b-PD-1 monomer) (human, UniProt Q15116 25-170, limits assumed, biotinylated (b-PD-1), site not stated); assay: MSD solution equilibrium titration, avid KD
T3 construct: The antigen format of the 'avid' measurement is not described
T3 sequence (Q15116 25-170 limits assumed): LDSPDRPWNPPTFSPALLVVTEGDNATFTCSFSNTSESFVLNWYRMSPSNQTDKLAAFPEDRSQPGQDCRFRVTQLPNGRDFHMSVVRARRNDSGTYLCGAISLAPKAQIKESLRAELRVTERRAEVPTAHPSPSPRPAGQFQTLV
Description: (§2) Equilibrium affinity measurements are performed as previously described (Estep, P., et al., MAbs, 2013. 5(2): p. 270-8). Solution equilibrium titrations (SET) are performed in PBS+0.1% IgG-Free BSA (PBSF) where antigen (b-PD-1 monomer) is held constant at 10-100 pM and is incubated with 3- to 5-fold serial dilutions of Fab or mAbs starting at 5-100 nM (experimental condition is sample dependent). Antibodies diluted at 20 nM in PBS are coated onto standard bind MSD-ECL plates overnight at 4° C. or at room temperature for 30 min. Plates are blocked with BSA for 30 min whilst shaking at 700 rpm. Plates are then washed 3× with wash buffer (PBSF+0.05% Tween 20). SET samples are applied and incubated on the plates for 150 s with shaking at 700 rpm followed by one wash. Antigen captured on a plate is detected with 250 ng/mL sulfotag-labeled streptavidin in PBSF by incubation on the plate for 3 min. The plates are washed three times with wash buffer and are then read on the MSD Sector Imager 2400 instrument using 1× Read Buffer T with surfactant. The percent free antigen is plotted as a function of titrated antibody in Prism and fit to a quadratic equation to extract the KD. To improve throughput, liquid handling robots are used throughout MSD-SET experiments, including for SET sample preparation.

[4] = molecular target: T4, murine PD-1 (soluble antigen of the MSD assay) (mouse, UniProt Q02242 25-169, limits assumed); assay: MSD solution equilibrium titration, avid KD
T4 construct: also called mouse PD-1
T4 sequence: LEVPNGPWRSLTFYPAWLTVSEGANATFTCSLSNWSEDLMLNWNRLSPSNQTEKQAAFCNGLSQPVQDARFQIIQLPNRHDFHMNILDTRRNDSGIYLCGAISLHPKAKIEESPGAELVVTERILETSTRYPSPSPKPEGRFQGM
Description: as §2

[5] = molecular target: T1, human PD-1 on cells (CHO cells; T cells …); assay: cell-based or functional assay; remark: listed apart in the source
[6] = molecular target: T3, human PD-1 (soluble antigen of the MSD …); assay: MSD solution equilibrium titration, monovalent KD
Description: as §2

[7] = molecular target: T4, murine PD-1 (soluble antigen of the MSD …); assay: MSD solution equilibrium titration, monovalent KD
Description: as §2

murine PD-1 on CHO cells = molecular target: T5, murine PD-1 on CHO cells (mouse, UniProt Q02242 25-288); assay: flow cytometry on CHO cells with murine PD-1
T5 sequence: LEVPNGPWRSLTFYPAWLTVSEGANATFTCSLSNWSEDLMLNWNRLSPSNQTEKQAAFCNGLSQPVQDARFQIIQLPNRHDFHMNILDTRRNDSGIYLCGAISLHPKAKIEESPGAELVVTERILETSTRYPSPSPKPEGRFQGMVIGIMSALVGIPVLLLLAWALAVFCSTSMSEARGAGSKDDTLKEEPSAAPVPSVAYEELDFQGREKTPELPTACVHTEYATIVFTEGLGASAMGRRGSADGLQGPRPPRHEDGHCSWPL
Description: as §1

[8] = molecular target: T1, human PD-1 on cells (CHO cells; T cells …); assay: flow cytometry, remaining PD-L2-FITC signal after 100 nM antibody; competitor PD-L2-FITC
Description: CHO cells 0.2×10⁶ are incubated with the experimental antibody (100 nM) for 30 min in PBS 1% BSA on ice. […] Cells are washed 3× and analyzed via flow cytometry. Flow cytometry is performed on an Accuri C6 system (BD Biosciences) and MFIs are calculated on the C6 software. EC50 s are calculated on Graphpad software.

T1 sequence (Q15116 25-288 limits assumed): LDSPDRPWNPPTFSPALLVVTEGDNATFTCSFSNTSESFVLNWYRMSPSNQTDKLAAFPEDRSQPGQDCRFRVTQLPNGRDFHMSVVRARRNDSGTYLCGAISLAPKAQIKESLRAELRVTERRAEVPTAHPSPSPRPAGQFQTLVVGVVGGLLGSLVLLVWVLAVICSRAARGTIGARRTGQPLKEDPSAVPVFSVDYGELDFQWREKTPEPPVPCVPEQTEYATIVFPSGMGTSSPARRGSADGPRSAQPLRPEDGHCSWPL

B1: Antibody C, IgG1 format expressed in yeast (antibody, V domains shown)
VH: QVQLVQSGAEVKKPGASVKVSCKASGYTFTAQYMHWVRQAPGQGLEWMGIINPSGGETGYAQKFQGRVTMTRDTSTSTVYMELSSLRSEDTAVYYCAKEGVADGYGLVDVWGQGTMVTVSS
VL: EIVLTQSPATLSLSPGERATLSCRASQSVSSYLAWYQQKPGQAPRLLIYDASKRATGIPARFSGSGSGTDFTLTISSLEPEDFAVYYCDQRNNWPLTFGGGTKVEIK
notes: Tested in IgG1 format, expressed in yeast
- EC50 [1]: 4.12 nM
- IL-2 in supernatant, 0.01 nM IgG [2]: 519 pg/mL
- IL-2 in supernatant, 0.1 nM IgG [2]: 587 pg/mL
- IL-2 in supernatant, 1 nM IgG [2]: 914 pg/mL
- IL-2 in supernatant, 10 nM IgG [2]: 1190 pg/mL
- IL-2 in supernatant, 100 nM IgG [2]: 1620 pg/mL
- IL-2 secretion fold change vs. IgG control, 0.01 nM IgG [2]: 1.01 fold
- IL-2 secretion fold change vs. IgG control, 0.1 nM IgG [2]: 1.15 fold
- IL-2 secretion fold change vs. IgG control, 1 nM IgG [2]: 1.83 fold
- IL-2 secretion fold change vs. IgG control, 10 nM IgG [2]: 2.29 fold
- IL-2 secretion fold change vs. IgG control, 100 nM IgG [2]: 2.62 fold
- Kd (human PD-1_HIS): 1 nM
- Kd [3]: 0.0093 nM
- Kd [4]: 0.13 nM
- IFNg secretion fold change vs. IgG control, 0.01 nM IgG [5]: 0.97 fold
- IFNg secretion fold change vs. IgG control, 0.1 nM IgG [5]: 1.5 fold
- IFNg secretion fold change vs. IgG control, 1 nM IgG [5]: 1.82 fold
- IFNg secretion fold change vs. IgG control, 10 nM IgG [5]: 1.79 fold
- IFNg secretion fold change vs. IgG control, 100 nM IgG [5]: 1.84 fold
- IFNγ in supernatant, 0.01 nM IgG [5]: 14400 pg/mL
- IFNγ in supernatant, 0.1 nM IgG [5]: 16500 pg/mL
- IFNγ in supernatant, 1 nM IgG [5]: 21100 pg/mL
- IFNγ in supernatant, 10 nM IgG [5]: 24100 pg/mL
- IFNγ in supernatant, 100 nM IgG [5]: 27400 pg/mL
- Kd [6]: 0.12 nM
- Kd [7]: 1.9 nM
- EC50 (murine PD-1 on CHO cells): 2.88 nM
- MFI (PD-L2-FITC) [8]: 30100 MFI

B2: Antibody E, IgG1 format expressed in yeast (antibody, V domains shown)
VH: QVQLVQSGAEVKKPGASVKVSCKASGYTFTSNYMHWVRQAPGQGLEWMGIINPSEGSTGYAQKFQGRVTMTRDTSTSTVYMELSSLRSEDTAVYYCAKEGVADGYGLVDVWGQGTMVTVSS
VL: EIVLTQSPATLSLSPGERATLSCRASQSVSSYLAWYQQKPGQAPRLLIYDASKRATGIPARFSGSGSGTDFTLTISSLEPEDFAVYYCDQRNNWPLTFGGGTKVEIK
notes: as for B1
- EC50 [1]: 4.59 nM
- IL-2 in supernatant, 0.01 nM IgG [2]: 580 pg/mL
- IL-2 in supernatant, 0.1 nM IgG [2]: 614 pg/mL
- IL-2 in supernatant, 1 nM IgG [2]: 978 pg/mL
- IL-2 in supernatant, 10 nM IgG [2]: 1360 pg/mL
- IL-2 in supernatant, 100 nM IgG [2]: 1980 pg/mL
- IL-2 secretion fold change vs. IgG control, 0.01 nM IgG [2]: 1.13 fold
- IL-2 secretion fold change vs. IgG control, 0.1 nM IgG [2]: 1.21 fold
- IL-2 secretion fold change vs. IgG control, 1 nM IgG [2]: 1.95 fold
- IL-2 secretion fold change vs. IgG control, 10 nM IgG [2]: 2.61 fold
- IL-2 secretion fold change vs. IgG control, 100 nM IgG [2]: 3.2 fold
- Kd (human PD-1_HIS): 1.2 nM
- Kd [3]: 0.022 nM
- Kd [4]: 0.33 nM
- IFNg secretion fold change vs. IgG control, 0.01 nM IgG [5]: 0.96 fold
- IFNg secretion fold change vs. IgG control, 0.1 nM IgG [5]: 1.26 fold
- IFNg secretion fold change vs. IgG control, 1 nM IgG [5]: 1.86 fold
- IFNg secretion fold change vs. IgG control, 10 nM IgG [5]: 2.01 fold
- IFNg secretion fold change vs. IgG control, 100 nM IgG [5]: 1.76 fold
- IFNγ in supernatant, 0.01 nM IgG [5]: 14300 pg/mL
- IFNγ in supernatant, 0.1 nM IgG [5]: 13800 pg/mL
- IFNγ in supernatant, 1 nM IgG [5]: 21600 pg/mL
- IFNγ in supernatant, 10 nM IgG [5]: 27100 pg/mL
- IFNγ in supernatant, 100 nM IgG [5]: 26300 pg/mL
- Kd [6]: 0.091 nM
- Kd [7]: 1.1 nM
- EC50 (murine PD-1 on CHO cells): 5.04 nM
- MFI (PD-L2-FITC) [8]: 38700 MFI
